The test has as its target SARS CoV-2 parental (Wuhan-Hu-1) receptor binding domain (RBD) protein, amino acids 319 to 541 of th (SARS-CoV-2, Wuhan-Hu-1 isolate), P0DTC2. The experiment in a line: ELISA, antigen coated, chimeric IgG1 titrated, anti-human Fc-HRP. The following applies: remark: other sources report otherwise.

B1: SKD chimeric bovine-human IgG1 (ultralong CDR3) (antibody)
VH: QVQLRESGPSLVKPSQTLSLTCTASGFSLSDKAVGWVRQAPGKALEWLGSIDTGGNTGYNPGLKSRLSITKDNSKSQVSLSVSSVTTEDSATYYCTTVHQRTSEKRSCPGGSSRRYPSGASCDVSGGACACYVSNCRGVLCPTLNEIVAYTYEWHVDAWGQGLLVTVSS
VL: QAVLNQPSSVSGSLGQRVSITCSGSSSNVGNGYVSWYQLIPGSAPRTLIYGDTSRASGVPDRFSGSRSGNTATLTISSLQAEDEADYFCASAEDSSSNAVFGSGTTLTVL
As to B1, the 50% effective concentration (EC50) amounted to 190 pM.

B2: SKM chimeric bovine-human IgG1 (ultralong CDR3) (antibody)
VH: QVQLRESGPSLVKPSQTLSLTCTASGFSLSDKAVGWVRQAPGKALEWLGSIDTGGNTGYNPGLKSRLSITKDNSKSQVSLSVSSVTTEDSATYYCTTVHQETLRSCPDGYIDNSGCTADWGCAALDCWRRRFGYHSTDPSHYTGATYIYTYSLHIDAWGQGLLVTVSS
VL: QAVLNQPSSVSGSLGQRVSITCSGSSSNVGNGYVSWYQLIPGSAPRTLIYGDTSRASGVPDRFSGSRSGNTATLTISSLQAEDEADYFCASAEDSSSNAVFGSGTTLTVL
As for B2, the EC50 turned out to be 240 pM.

For the origin of these results see US20240218052A1.
